US20160257756A1 (CONSEJO SUPERIOR DE INVESTIGACIONES CIENTIFICAS C S I C, published 2016)

Target: T1, human chemokine receptor CCR9 (human, UniProt P51686 1-369, N-glycosylated at Asn32 on cells (removed by PNGase F in some Western blots); the letters do not carry this)
T1 construct: On stably transfected HEK293 cells, endogenous on MOLT-4 cells, thymocytes and blood lymphocytes; also as membrane extracts in Western blots (with or without PNGase F); also called hCCR9; human CCR9
T1 sequence: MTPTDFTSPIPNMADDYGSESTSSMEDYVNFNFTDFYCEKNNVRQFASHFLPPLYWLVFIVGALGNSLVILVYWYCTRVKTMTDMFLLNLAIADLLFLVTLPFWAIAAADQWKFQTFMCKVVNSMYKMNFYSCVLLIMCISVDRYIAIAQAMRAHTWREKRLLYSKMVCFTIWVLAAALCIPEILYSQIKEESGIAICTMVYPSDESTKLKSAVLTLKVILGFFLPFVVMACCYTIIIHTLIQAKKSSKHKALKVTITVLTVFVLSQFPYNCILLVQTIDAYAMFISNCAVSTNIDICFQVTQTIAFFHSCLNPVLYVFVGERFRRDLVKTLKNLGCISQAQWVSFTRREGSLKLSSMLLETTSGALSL
Experiment: flow cytometry on MOLT-4 cells, hCCL25 10 µg/ml before 91R (0.5 µg/ml)
Protocol: To study whether CCL25 affects CCR9 recognition by 91R, MOLT-4 cells were preincubated alone or with hCCL25, in the presence of sodium azide to inhibit receptor internalization (40 min, 4° C.), followed by incubation with 91R and flow cytometry analysis.

B1: recombinant human CCL25 (ligand, UniProt O15444 24-150, looked up)
chain: QGVFEDCCLAYHYPIGWAVLRRAWTYRIQEVSGSCNLPAAIFYLPKRHRKVCGNPKSREVQRAMKLLDARNKVFAKLHHNTQTFQAGPHAVKKLSSGNSKLSSSKFSNPISSSKRNVSLLISANSGL
notes: Bought (Peprotech); also called hCCL25; TECK
  binding result: binds
